{
  "source": "patent US8003345B2",
  "about": "“Antioxidant pharmaceutical compound, method for producing polypeptide and method of cure” (Institute of Cell Biophysics Russian Academy of Sciences, priority 2002, dated 2011)",
  "molecules": {"B1": {"name": "Prx VIhum: recombinant full-size human peroxiredoxin Prx VI, 224 amino acids (SEQ ID NO: 1), produced in E.coli (protein)", "chain": "MPGGLLLGDVAPNFEANTTVGRIRFHDFLGDSWGILFSHPRDFTPVCTTELGRAAKLAPEFAKRNVKLIALSIDSVEDHLAWSKDINAYNCEEPTEKLPFPIIDDRNRELAILLGMLDPAEKDEKGMPVTARVVFVFGPDKKLKLSILYPATTGRNFDEILRVVISLQLTAEKRVATPVDWKDGDSVMVLPTIPEEEAKKLFPKGVFTKELPSGKKYLRYTPQP"}},
  "key": {"oxyhemoglobin": {"system": "oxyhemoglobin", "assay": "Protection of oxyhemoglobin from the action of ionizing radiation", "assay_type": "biochemical", "settings": "about 50 μg/ml added before irradiation; 10 Gy; registered at 635 nm", "text": "The antiradiation properties of Prx Vlhum are investigated both in vitro, by investigating a solution of hemoglobin, and in vivo on animals. Irradiation of a solution of hemoglobin (see Example 10) leads to essential changes in its structure (appearance of peaks at 635 nm and an increase of light scattering), this being indicative of conversion of oxyhemoglobin to methemoglobin, followed by the aggregation thereof.\nFor checking the possibility of protecting biological macromolecules from destruction caused by ionizing radiation with the aid of peroxiredoxin, we have investigated the characteristics of irradiated oxyhemoglobin in control and in the presence of peroxiredoxin. In control we used a solution of oxyhemoglobin (0.16 D at 540 nm) in 0.1 M of Tris-HCl (pH 7.0) which was irradiated in a GUBE apparatus with the total exposure dose of 10 Gy. As the radioprotector peroxiredoxin Prx V1hum was used in different concentrations (5-100 μg/ml) in the presence of 50 μM of dithiothreitol. The formation of oxidized forms of oxyhemoglobin (methemoglobin) was registered at 635 nm, and aggregation of methemoglobin was registered at 700 nm."}, "skin cuts of rats": {"system": "skin cuts of rats", "assay": "Treating skin wounds (cuts) in rats", "assay_type": "in vivo, rat", "settings": "in 5 days; 0.5 mg/ml in 0.15 M NaCl, bandages changed once a day; against control; FIG. 10", "method": "Rats were preliminarily narcotized by intraperitoneal introduction of hexenal (70 mg/kg). The animals were fixed on an operating table, and then 2-3 mm deep and 1 cm long cuts were made in the skin of both paws with the help of a razor blade. Control cuts were irrigated with physiological solution and a bactericidal plaster was applied; in the case of using peroxiredoxin, the wound was irrigated with a solution of recombinant Prx Vlhum or of its fragment ΔPrx Vlhum in 0.15 M NaCl in 0.5 mg/ml concentration, and a gauze bandage soaked with the same solutions was applied. The bandages were changed once a day."}, "[1]": {"system": "Wistar line rats subjected to gamma-irradiation", "assay": "Survival of rats after gamma-irradiation at a dose of 6 Gy", "settings": "for number of rats survived: groups of 6 rats, intravenous before irradiation", "description": "The radioprotector properties of peroxiredoxin in experiments in vivo are determined on an example of protecting animals from the action of gamma-irradiation in a sublethal dose with an intensity of 6 Gy.\nSimultaneous irradiation of all animals (Wistar line rats weighing 200 grams) was carried out on a GUBE apparatus. The exposure dose was 6 Gy. The rats were divided into two groups. The first group of the animals (n=6) was used for control. The animals of the second group (n=6) 30-60 minutes before the irradiation were administered intravenously with 1 mg of peroxiredoxin Prx VI (1 ml of physiological solution at the peroxiredoxin concentration of 1 μg/ml). After the irradiation the animals were kept in common premises with sufficient amount of food, illumination and ventilation. For histological investigation animals with symptoms of worsened general conditions were chose from each group."}},
  "data": [
    {"molecule": "B1", "values": [
      {"measurement": "concentration of oxidized forms of hemoglobin", "setting": "oxyhemoglobin", "result": "lowered almost to zero"},
      {"measurement": "healing of the wound", "setting": "skin cuts of rats", "result": "almost complete healing of the wound"},
      {"measurement": "number of rats survived", "setting": "[1]; 3 months, 6 Gy", "result": 6},
      {"measurement": "number of rats survived", "setting": "[1]; 6 months, 6 Gy", "result": 5},
      {"measurement": "number of rats survived", "setting": "[1]; 12 months, 6 Gy", "result": 4},
      {"measurement": "number of rats survived", "setting": "[1]; 15 months, 6 Gy", "result": 4},
      {"measurement": "mortality of the rats", "setting": "[1]; administered before irradiation, 6 Gy, versus control group", "result": "essentially lower than in the control group"},
      {"measurement": "general condition of the survived animals", "setting": "[1]; one year after the irradiation, compared with the control group", "result": "differed markedly in favor of the second group"},
      {"measurement": "number of irradiation-associated malignant neoplasms", "setting": "[1]; single injection into a vein 30 minutes before irradiation, 6 Gy", "result": "diminish the number of irradiation -associated malignant neoplasms"}
    ]}
  ]
}
